Experimental data: patent US20200262877A1, “ION CHANNEL-BINDING PEPTIDES AND METHODS OF USE THEREOF” (priority 2017, published 2020)

Columns and labels:
α3β4 = target: T1, α3β4 (Homo sapiens, UniProt P30926+P32297); assay: Ion channel panel (IonWorks Barracuda): α3β4; type: cell-based; details: 100% = no change, <100% = inhibition
T1 construct: host or cells: HEK293 or CHO
How it was run: (§1)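 Peptides were tested in duplicate at final 20 μM and 200 nM, with concentration set by amino acid analysis, in HEPES-buffered saline. They were applied for at least 5 min to HEK293 or CHO cells transfected with each channel. Currents were expressed as % inhibition, 1-(Ipeptide/Icontrol)×100, or % activation, Ipeptide/Icontrol×100, against a channel-matched reference compound.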

5HT3a = target: T2, 5HT3a (Homo sapiens, UniProt P46098); assay: Ion channel panel (IonWorks Barracuda): 5HT3a; type: cell-based
T2 construct: host or cells: HEK293 or CHO
T2 sequence (P46098 whole entry, looked up): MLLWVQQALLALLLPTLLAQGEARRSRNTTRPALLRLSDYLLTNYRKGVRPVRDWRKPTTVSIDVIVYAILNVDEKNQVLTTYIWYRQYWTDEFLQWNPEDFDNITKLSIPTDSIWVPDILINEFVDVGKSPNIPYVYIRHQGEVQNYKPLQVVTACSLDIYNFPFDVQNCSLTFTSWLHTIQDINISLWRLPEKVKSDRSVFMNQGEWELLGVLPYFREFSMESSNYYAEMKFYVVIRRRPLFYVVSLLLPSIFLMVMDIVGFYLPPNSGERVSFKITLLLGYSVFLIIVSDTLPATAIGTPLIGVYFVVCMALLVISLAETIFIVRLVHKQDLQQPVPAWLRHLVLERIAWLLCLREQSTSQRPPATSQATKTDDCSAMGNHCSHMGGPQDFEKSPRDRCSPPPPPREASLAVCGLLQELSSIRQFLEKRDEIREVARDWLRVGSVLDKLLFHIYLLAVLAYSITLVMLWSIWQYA
How it was run: as §1

NR2A = target: T3, NR2A (Homo sapiens, UniProt Q12879); assay: Ion channel panel (IonWorks Barracuda): NR2A; type: cell-based; details: 100% = no change, <100% = inhibition
T3 construct: host or cells: HEK293 or CHO
How it was run: as §1

Kir2.1 = target: T4, Kir2.1 (Homo sapiens, UniProt P63252); assay: Ion channel panel (IonWorks Barracuda): Kir2.1; type: cell-based; details: 100% = no change, <100% = inhibition
T4 construct: host or cells: HEK293 or CHO
How it was run: as §1

TRPV1 = target: T5, TRPV1 (Homo sapiens, UniProt Q8NER1); assay: Ion channel panel (IonWorks Barracuda): TRPV1; type: cell-based; details: 100% = no change, <100% = inhibition
T5 construct: host or cells: HEK293 or CHO
How it was run: as §1

Kv1.2 = target: T6, Kv1.2 (Homo sapiens, UniProt P16389); assay: cell-based; type: cell-based; details: 100% = no change, <100% = inhibition
T6 construct: host or cells: HEK293 or CHO
T6 sequence (P16389 whole entry): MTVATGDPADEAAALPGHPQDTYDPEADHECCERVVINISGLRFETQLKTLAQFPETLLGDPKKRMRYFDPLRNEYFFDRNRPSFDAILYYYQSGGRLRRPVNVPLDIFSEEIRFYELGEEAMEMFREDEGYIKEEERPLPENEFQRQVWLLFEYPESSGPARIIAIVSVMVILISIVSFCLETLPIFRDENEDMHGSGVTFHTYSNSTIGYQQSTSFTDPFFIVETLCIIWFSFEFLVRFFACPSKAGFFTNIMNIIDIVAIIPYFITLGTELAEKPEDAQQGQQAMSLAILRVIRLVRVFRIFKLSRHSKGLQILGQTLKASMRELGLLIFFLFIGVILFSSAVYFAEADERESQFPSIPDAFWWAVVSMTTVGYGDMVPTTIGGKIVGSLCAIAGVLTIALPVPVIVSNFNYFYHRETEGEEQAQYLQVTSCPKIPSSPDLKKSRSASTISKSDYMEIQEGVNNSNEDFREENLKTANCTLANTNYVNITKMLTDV
How it was run: as §1

Kv1.3 = target: T7, Kv1.3 (Homo sapiens, UniProt P22001); assay: cell-based; type: cell-based; details: 100% = no change, <100% = inhibition
T7 construct: host or cells: HEK293 or CHO
T7 sequence (P22001 whole entry): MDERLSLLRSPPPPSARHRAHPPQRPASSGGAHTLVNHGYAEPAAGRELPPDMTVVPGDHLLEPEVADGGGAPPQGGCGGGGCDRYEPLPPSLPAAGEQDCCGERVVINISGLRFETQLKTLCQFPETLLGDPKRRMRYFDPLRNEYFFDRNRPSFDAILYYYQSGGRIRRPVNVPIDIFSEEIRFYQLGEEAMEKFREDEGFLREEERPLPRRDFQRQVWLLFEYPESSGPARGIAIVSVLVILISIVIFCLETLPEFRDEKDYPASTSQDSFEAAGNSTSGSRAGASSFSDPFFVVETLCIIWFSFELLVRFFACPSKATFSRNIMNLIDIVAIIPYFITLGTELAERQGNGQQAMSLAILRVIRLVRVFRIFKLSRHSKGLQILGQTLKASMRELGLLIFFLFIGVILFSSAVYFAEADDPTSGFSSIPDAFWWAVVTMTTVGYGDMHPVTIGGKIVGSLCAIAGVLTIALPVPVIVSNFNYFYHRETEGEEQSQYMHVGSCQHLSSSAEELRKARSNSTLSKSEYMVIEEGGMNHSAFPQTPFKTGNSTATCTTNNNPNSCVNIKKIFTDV
How it was run: as §1

Kv1.1 = target: T8, Kv1.1 (Homo sapiens, UniProt Q09470); assay: cell-based; type: cell-based; details: 100% = no change, <100% = inhibition
T8 construct: host or cells: HEK293 or CHO
How it was run: as §1

α4β2 = target: T9, α4β2 (Homo sapiens, UniProt P17787+P43681); assay: Ion channel panel (IonWorks Barracuda): α4β2; type: cell-based; details: 100% = no change, <100% = inhibition
T9 construct: host or cells: HEK293 or CHO
How it was run: as §1

Cav2.2 = target: T10, Cav2.2 (Homo sapiens, UniProt Q00975); assay: cell-based; details: 100% = no change, <100% = inhibition
T10 construct: host or cells: HEK293 or CHO
How it was run: as §1

Cav2.1 = target: T11, Cav2.1 (Homo sapiens, UniProt O00555); assay: cell-based; details: 100% = no change, <100% = inhibition
T11 construct: host or cells: HEK293 or CHO
How it was run: as §1

Kv2.1 = target: T12, Kv2.1 (Homo sapiens, UniProt Q14721); assay: cell-based; details: 100% = no change, <100% = inhibition
T12 construct: host or cells: HEK293 or CHO
How it was run: as §1

Nav1.5 = Nav1.5 (Homo sapiens, UniProt Q14524); assay: in vitro; details: 100% = no change; for Activity of Nav1.5 with peptide, expressed as a percentage of the reference compound: peptide at 0.2 μM; for Activity of Nav1.5 with peptide (percentage of the reference compound): peptide at 20 μM
Sequence of Nav1.5 (Q14524 whole entry): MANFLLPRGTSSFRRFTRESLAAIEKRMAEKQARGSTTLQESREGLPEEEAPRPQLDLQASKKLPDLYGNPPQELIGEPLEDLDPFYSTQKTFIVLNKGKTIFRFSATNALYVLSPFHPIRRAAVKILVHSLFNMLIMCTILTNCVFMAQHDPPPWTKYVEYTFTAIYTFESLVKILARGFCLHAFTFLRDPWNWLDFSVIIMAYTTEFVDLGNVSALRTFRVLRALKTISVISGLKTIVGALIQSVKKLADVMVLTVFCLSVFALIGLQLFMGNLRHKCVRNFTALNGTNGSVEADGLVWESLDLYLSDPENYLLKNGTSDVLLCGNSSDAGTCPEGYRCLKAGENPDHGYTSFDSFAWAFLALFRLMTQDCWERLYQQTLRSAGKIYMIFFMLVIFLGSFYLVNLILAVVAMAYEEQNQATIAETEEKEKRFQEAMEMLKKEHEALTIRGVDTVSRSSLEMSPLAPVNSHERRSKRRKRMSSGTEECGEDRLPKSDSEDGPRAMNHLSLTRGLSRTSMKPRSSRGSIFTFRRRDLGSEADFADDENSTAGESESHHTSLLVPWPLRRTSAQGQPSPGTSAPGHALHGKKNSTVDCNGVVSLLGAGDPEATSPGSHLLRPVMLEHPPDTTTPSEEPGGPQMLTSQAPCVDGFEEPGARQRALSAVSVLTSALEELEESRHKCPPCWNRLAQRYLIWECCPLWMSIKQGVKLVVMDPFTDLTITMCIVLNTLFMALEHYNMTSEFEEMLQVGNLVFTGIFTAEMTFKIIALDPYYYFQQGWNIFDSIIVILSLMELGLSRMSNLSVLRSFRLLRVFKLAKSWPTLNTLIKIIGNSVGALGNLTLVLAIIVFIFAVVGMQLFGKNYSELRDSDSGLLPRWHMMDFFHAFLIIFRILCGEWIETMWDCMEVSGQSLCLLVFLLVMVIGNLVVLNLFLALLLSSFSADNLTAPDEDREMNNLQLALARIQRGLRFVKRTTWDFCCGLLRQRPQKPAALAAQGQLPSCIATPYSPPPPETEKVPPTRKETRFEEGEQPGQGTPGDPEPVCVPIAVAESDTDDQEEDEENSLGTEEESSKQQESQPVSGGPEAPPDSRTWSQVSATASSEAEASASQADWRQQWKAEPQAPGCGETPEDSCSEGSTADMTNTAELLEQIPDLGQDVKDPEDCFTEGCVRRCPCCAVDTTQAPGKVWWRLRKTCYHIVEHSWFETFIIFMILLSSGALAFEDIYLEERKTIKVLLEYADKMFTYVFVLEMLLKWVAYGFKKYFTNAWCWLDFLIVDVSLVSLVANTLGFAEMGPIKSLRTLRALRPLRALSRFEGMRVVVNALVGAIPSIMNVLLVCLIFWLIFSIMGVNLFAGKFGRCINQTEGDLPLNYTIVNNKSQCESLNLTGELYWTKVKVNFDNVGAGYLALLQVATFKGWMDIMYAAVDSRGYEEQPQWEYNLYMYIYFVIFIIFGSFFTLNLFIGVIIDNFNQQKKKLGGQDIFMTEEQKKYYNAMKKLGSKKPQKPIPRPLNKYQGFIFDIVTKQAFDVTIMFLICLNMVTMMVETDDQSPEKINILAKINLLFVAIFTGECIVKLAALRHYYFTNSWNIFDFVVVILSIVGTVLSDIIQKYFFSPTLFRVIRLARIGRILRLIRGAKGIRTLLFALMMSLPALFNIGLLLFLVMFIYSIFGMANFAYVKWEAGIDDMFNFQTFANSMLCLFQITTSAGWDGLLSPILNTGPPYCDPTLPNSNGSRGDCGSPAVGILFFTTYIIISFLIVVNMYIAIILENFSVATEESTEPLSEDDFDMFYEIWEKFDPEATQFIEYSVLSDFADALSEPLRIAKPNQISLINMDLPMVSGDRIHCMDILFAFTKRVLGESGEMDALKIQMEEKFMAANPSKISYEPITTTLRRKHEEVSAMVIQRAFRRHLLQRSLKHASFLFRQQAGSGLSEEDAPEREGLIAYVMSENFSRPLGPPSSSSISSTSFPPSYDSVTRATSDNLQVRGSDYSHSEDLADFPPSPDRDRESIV
How it was run: as §1

hERG = hERG (Homo sapiens, UniProt Q12809); assay: in vitro; details: 100% = no change, <100% = inhibition
How it was run: as §1

GABA = assay: Ion channel panel (IonWorks Barracuda): GABA; type: cell-based; details: 100% = no change, <100% = inhibition
How it was run: as §1

Nav1.7 = target: T13, Nav1.7 (Homo sapiens, UniProt Q15858); assay: cell-based; type: cell-based; details: 100% = no change; for Activity of Nav1.7 with peptide, expressed as a percentage of the reference compound: peptide at 0.2 μM; for Activity of Nav1.7 with peptide (percentage of the reference compound): peptide at 20 μM
T13 construct: host or cells: HEK293 or CHO
T13 sequence (Q15858 whole entry): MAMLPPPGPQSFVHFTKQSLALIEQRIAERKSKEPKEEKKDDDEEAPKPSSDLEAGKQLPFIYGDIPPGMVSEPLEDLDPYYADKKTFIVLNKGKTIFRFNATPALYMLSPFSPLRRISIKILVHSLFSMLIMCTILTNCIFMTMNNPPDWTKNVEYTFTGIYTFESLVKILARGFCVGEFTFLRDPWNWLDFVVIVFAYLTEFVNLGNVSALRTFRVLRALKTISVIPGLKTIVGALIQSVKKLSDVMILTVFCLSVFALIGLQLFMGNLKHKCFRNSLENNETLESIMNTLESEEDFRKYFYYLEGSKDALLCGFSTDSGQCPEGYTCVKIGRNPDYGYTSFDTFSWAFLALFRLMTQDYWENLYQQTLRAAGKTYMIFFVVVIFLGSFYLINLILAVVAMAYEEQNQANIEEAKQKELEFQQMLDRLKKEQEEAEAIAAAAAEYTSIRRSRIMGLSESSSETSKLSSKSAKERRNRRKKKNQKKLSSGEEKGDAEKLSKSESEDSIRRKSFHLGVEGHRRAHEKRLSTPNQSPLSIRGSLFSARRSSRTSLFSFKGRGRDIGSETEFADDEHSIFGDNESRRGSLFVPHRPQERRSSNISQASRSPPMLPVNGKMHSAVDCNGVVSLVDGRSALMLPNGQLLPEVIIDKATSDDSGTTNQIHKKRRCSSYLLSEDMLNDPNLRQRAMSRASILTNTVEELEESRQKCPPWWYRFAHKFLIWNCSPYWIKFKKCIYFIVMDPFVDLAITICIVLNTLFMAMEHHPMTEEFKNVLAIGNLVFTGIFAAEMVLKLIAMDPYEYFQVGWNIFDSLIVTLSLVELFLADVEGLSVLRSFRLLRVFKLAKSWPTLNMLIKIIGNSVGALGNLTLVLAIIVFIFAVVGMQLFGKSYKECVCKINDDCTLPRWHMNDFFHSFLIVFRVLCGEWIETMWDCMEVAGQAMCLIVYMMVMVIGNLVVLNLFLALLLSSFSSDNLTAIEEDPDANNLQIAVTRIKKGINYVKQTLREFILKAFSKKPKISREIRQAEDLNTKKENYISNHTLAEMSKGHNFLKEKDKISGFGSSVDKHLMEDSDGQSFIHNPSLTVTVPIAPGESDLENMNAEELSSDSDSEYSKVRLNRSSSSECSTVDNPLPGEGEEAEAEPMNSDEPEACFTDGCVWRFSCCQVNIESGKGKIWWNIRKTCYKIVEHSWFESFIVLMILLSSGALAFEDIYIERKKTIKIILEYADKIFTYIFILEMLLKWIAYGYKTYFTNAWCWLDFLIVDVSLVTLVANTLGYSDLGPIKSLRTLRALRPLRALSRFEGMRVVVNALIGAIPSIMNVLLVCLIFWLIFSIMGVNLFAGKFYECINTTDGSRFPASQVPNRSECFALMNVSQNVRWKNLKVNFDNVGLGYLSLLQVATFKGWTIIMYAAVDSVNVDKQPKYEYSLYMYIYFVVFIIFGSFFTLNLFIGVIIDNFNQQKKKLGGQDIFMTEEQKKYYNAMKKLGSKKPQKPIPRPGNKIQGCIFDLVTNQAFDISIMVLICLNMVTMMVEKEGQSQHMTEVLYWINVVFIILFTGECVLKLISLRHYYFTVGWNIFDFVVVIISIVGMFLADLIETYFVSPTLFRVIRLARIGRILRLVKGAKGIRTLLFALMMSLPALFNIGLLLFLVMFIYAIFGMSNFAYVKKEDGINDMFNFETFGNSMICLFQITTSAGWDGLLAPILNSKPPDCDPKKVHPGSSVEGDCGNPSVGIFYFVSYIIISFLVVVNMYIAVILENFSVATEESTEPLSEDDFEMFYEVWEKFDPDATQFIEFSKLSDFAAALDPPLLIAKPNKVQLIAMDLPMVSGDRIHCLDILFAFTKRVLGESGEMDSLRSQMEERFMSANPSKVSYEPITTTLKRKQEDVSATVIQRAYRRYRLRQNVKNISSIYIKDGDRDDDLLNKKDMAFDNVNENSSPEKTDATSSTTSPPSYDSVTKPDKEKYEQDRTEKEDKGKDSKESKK

TRPA1 = target: T14, TRPA1 (Homo sapiens, UniProt O75762); assay: Ion channel panel (IonWorks Barracuda): TRPA1; type: cell-based; details: 100% = no change, <100% = inhibition
T14 construct: host or cells: HEK293 or CHO
How it was run: as §1

NR2B = target: T15, NR2B (Homo sapiens, UniProt Q13224); assay: Ion channel panel (IonWorks Barracuda): NR2B; type: cell-based; details: 100% = no change, <100% = inhibition
T15 construct: host or cells: HEK293 or CHO
How it was run: as §1

[1] = first of two Nav1.5 columns (probably TP1)
[2] = second of two Nav1.5 columns (probably TP2)
[3] = first of two Nav1.7 columns (probably TP1)
[4] = second of two Nav1.7 columns (probably TP2)

6 (GSVRIPVSCKHSGQCLKPCKDAGMRFGKCMNGKCDCTPK) [compound 6]
Activity of a3b4 with peptide, expressed as a percentage of the reference compound (α3β4; peptide at 0.2 μM): 100%
Activity of a3b4 with peptide (percentage of the reference compound) (α3β4; peptide at 20 μM): 95%
Activity of 5HT3a with peptide (percentage of the reference compound) (5HT3a): 84%
Activity of 5HT3a with peptide, expressed as a percentage of the reference compound (5HT3a): 85%
Activity of NR2A with peptide, expressed as a percentage of the reference compound (NR2A; peptide at 0.2 μM): 86%
Activity of NR2A with peptide (percentage of the reference compound) (NR2A; peptide at 20 μM): 88%
Activity of Kir2.1 with peptide, expressed as a percentage of the reference compound (Kir2.1; peptide at 0.2 μM): 96%
Activity of Kir2.1 with peptide (percentage of the reference compound) (Kir2.1; peptide at 20 μM): 94%
Activity of TRPV1 with peptide, expressed as a percentage of the reference compound (TRPV1; peptide at 0.2 μM): 86%
Activity of TRPV1 with peptide (percentage of the reference compound) (TRPV1; peptide at 20 μM): 98%
Activity of Kv1.2 with peptide, expressed as a percentage of the reference compound (Kv1.2; peptide at 0.2 μM): 81%
Activity of Kv1.2 with peptide (percentage of the reference compound) (Kv1.2; peptide at 20 μM): 85%
Activity of Kv1.3 with peptide, expressed as a percentage of the reference compound (Kv1.3; peptide at 0.2 μM): 25%
Activity of Kv1.3 with peptide (percentage of the reference compound) (Kv1.3; peptide at 20 μM): 0%
Activity of Kv1.1 with peptide, expressed as a percentage of the reference compound (Kv1.1; peptide at 0.2 μM): 96%
Activity of Kv1.1 with peptide (percentage of the reference compound) (Kv1.1; peptide at 20 μM): 30%
Activity of a4b2 with peptide, expressed as a percentage of the reference compound (α4β2; peptide at 0.2 μM): 71%
Activity of a4b2 with peptide (percentage of the reference compound) (α4β2; peptide at 20 μM): 96%
Activity of Cav2.2 with peptide, expressed as a percentage of the reference compound (Cav2.2; peptide at 0.2 μM): 103%
Activity of Cav2.2 with peptide (percentage of the reference compound) (Cav2.2; peptide at 20 μM): 107%
Activity of Cav2.1 with peptide, expressed as a percentage of the reference compound (Cav2.1; peptide at 0.2 μM): 109%
Activity of Cav2.1 with peptide (percentage of the reference compound) (Cav2.1; peptide at 20 μM): 111%
Activity of Kv2.1 with peptide, expressed as a percentage of the reference compound (Kv2.1; peptide at 0.2 μM): 103%
Activity of Kv2.1 with peptide (percentage of the reference compound) (Kv2.1; peptide at 20 μM): 124%
Activity of Nav1.5 with peptide, expressed as a percentage of the reference compound (Nav1.5; [1]): 105%
Activity of Nav1.5 with peptide, expressed as a percentage of the reference compound (Nav1.5; [2]): 104%
Activity of Nav1.5 with peptide (percentage of the reference compound) (Nav1.5; [1]): 116%
Activity of Nav1.5 with peptide (percentage of the reference compound) (Nav1.5; [2]): 120%
Activity of hERG with peptide, expressed as a percentage of the reference compound (hERG; peptide at 0.2 μM): 107%
Activity of hERG with peptide (percentage of the reference compound) (hERG; peptide at 20 μM): 71%
Activity of GABA with peptide, expressed as a percentage of the reference compound (GABA; peptide at 0.2 μM): 104%
Activity of GABA with peptide (percentage of the reference compound) (GABA; peptide at 20 μM): 96%
Activity of Nav1.7 with peptide, expressed as a percentage of the reference compound (Nav1.7; [3]): 98%
Activity of Nav1.7 with peptide, expressed as a percentage of the reference compound (Nav1.7; [4]): 95%
Activity of Nav1.7 with peptide (percentage of the reference compound) (Nav1.7; [3]): 116%
Activity of Nav1.7 with peptide (percentage of the reference compound) (Nav1.7; [4]): 119%
Activity of TRPA1 with peptide, expressed as a percentage of the reference compound (TRPA1; peptide at 0.2 μM): 126%
Activity of TRPA1 with peptide (percentage of the reference compound) (TRPA1; peptide at 20 μM): 92%
Activity of NR2B with peptide, expressed as a percentage of the reference compound (NR2B; peptide at 0.2 μM): 92%
Activity of NR2B with peptide (percentage of the reference compound) (NR2B; peptide at 20 μM): 75%
